{"source": "patent US20090062514A1", "target": "human IgG (Sigma 14506) (human)", "assay": "co-precipitation of human IgG with viral particles by centrifugation; SDS-PAGE of pellets and supernatants", "note": "Values joined by “and” are separate entries in the source; they are usually repeats but may differ in a detail not shown here. Identical values can stand only once.", "data": [{"substance": "recombinant viral particles displaying protein A on their surface (TVCV coat protein-protein A fusion, domains E and D of protein A)", "values": [{"measurement": "binding capacity (mg IgG/mg of viral particles)", "result": 2}, {"measurement": "CP-protein A fusion molecules per bound IgG molecule", "setting": "scale: CP-protein A fusion molecules per IgG molecule", "result": "3 and 5"}]}]}
